Measurements taken from PMC3680380, “Functional Characterization of the Cardiac Ryanodine Receptor Pore-Forming Region” (PLoS ONE, 2013).

Molecular target: the molecule itself
Assay: SEC; analytical gel filtration, HiLoad 16/60 Superdex 200, 50 mM Tris, 150 mM KCl, pH 8.0, 0.1% LDAO; calibrated with soluble protein standards (B-amylase, carbonic anhydrase, cytochrome c); elution at 72 ml against 71 ml expected for a tetramer

B1: human cardiac ryanodine receptor (RyR2) pore-forming region (domain or fragment, UniProt Q92736 4758-4967, looked up)
chain: SSVTHNGKQLVLTVGLLAVVVYLYTVVAFNFFRKFYNKSEDGDTPDMKCDDMLTCYMFHMYVGVRAGGGIGDEIEDPAGDEYEIYRIIFDITFFFFVIVILLAIIQGLIIDAFGELRDQQEQVKEDMETKCFICGIGNDYFDTVPHGFETHTLQEHNLANYLFFLMYLINKDETEHTGQESYVWKMYQERCWEFFPAGDCFRKQYEDQLN
notes: Cardiac ryanodine receptor RyR2, human, pore-forming region, residues 4758-4967 (printed as 209 residues), up to the natural C-terminus; 27.3 kDa with the tag; also called hRyR2-PFR; RyR2-PFR; source: E. coli Rosetta (DE3) pLysS, pET19b; membranes solubilised in 1% LDAO, purified (Ni-NTA, Superdex 200 gel filtration in 0.1% LDAO); not shown: deca-His, N-terminal, kept
- stoichiometry N: 4
